{"source": "patent US20130345401", "test_system": "T1, human fibrinogen produced in a silkworm (recombinant fibrinogen extracted from cocoons of β42-3×α/γ106-2×IM transgenic silkworms)", "T1 sequence 1": "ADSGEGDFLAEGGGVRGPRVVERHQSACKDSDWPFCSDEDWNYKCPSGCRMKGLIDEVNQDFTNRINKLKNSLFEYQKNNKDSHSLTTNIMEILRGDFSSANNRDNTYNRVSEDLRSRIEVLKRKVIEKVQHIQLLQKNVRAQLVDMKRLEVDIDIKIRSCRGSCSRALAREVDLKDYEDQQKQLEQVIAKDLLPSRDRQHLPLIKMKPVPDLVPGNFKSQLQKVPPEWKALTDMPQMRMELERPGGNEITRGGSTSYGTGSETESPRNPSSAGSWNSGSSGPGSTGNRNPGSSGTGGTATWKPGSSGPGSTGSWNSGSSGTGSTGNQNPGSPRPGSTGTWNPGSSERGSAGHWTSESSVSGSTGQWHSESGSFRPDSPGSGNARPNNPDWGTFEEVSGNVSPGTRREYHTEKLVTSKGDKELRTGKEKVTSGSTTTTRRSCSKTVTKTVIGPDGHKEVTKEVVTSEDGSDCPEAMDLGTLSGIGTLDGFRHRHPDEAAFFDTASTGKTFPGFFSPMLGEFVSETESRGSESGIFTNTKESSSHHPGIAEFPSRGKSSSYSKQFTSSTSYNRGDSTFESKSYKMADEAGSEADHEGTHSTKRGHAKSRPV", "T1 sequence 2": "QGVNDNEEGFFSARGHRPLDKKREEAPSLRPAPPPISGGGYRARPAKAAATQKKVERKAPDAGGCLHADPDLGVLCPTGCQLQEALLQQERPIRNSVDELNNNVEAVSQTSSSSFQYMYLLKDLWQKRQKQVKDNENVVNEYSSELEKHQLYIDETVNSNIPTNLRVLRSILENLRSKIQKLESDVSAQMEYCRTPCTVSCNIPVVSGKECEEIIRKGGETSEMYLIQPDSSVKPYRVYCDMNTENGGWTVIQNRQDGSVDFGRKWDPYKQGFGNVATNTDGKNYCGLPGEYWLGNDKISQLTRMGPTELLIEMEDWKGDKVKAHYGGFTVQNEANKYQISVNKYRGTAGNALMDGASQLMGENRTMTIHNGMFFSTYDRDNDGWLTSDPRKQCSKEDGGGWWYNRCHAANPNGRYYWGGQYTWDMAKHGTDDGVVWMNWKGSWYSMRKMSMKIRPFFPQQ", "T1 sequence 3": "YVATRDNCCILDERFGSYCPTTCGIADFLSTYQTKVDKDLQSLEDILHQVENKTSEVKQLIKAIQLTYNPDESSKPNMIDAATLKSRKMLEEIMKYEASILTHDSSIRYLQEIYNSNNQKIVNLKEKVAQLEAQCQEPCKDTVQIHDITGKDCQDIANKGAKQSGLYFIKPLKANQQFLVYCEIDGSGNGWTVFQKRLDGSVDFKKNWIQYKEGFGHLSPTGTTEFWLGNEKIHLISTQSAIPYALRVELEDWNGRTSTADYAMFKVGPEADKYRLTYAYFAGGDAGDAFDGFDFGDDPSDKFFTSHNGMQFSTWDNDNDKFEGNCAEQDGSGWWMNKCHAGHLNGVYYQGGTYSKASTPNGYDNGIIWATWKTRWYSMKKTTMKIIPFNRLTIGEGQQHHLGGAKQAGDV", "data": [{"substance": "thrombin (Calbiochem)", "values": [{"measurement": "coagulation (fibrin clot formation): viscosity of the liquid after incubation with 10 U/ml thrombin at 37° C. for 1 hour", "value": "viscosity of the liquid increased to an extent where, when the liquid was sucked into a pipette, the liquid hardly dropped from the tip of the pipette"}]}]}
